The results in this text go back to patent US20060153883A1 (Chugai, published 2006).

This experiment has as its target T1, HA tag-carrying soluble HM1.24 antigen sHM164 (HM1.24 antigen extracellular region in which the C terminal … (human, UniProt Q10589 49-163, limits assumed)).
T1 construct: also called HA-sHM164
T1 sequence: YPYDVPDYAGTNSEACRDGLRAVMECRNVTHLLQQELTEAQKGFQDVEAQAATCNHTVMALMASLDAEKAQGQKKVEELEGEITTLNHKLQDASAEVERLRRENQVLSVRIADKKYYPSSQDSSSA
The experiment in a line: sandwich ELISA: anti-HA antibody coated, CHO culture supernatant, humanized anti-HM1.24 antibody as detector, AP-labeled anti-human IgG. The protocol: The soluble human HM1.24 ELISA described below was conducted as follows. In order to select a highly productive strain, the amount of the soluble protein produced was compared by a sandwich ELISA using anti-HA antibody (Boehringer Mannheim) and a humanized anti-HM1.24 antibody (K. Ono et al., The 20th Japan Molecular Biology Annual Meeting, General Lecture 3-501-P-478), whereby selecting the strain. Since the antigen concentration was not known because a purified antigen was not obtained, the number of the cells upon the ELISA was taken into account when comparing the concentration.
An anti-HA antibody (Boehringer Mannheim) was adjusted at 1 μg/ml in a Coating Buffer (C.B.: 0.1 mol/L sodium bicarbonate buffer, pH 9.6, 0.2% sodium azide) was added to a plane bottom 96-well plate (Nunc) in the volume of 100 μl/well, and coated overnight at 4° C.

B1: reconstructed human anti-HM1.24 antibody (humanized anti-HM1.24 antibody), light chain version a and heavy chain version s described in WO98/14580 (antibody, V domains shown)
VH: QVQLVQSGAEVKKPGASVKVSCKASGYTFTPYWMQWVRQAPGQGLEWMGSIFPGDGDTRYSQKFKGRVTITADKSTSTAYMELSSLRSEDTAVYYCARGLRRGGYYFDYWGQGTTVTVSS
VL: DIQMTQSPSSLSASVGDRVTITCKASQDVNTAVAWYQQKPGKAPKLLIYSASNRYTGVPSRFSGSGSGTDFTFTISSLQPEDIATYYCQQHYSTPFTFGQGTKVEIK
notes: Plasmid names point to a human gamma 1 heavy and a kappa light constant region; It was detected with an anti-human IgG antibody in the ELISA
Regarding B1, the binding result is “binds”.
